Read-outs that look alike come from different tables or passages of the source.
How the values were obtained:
Experiment in all cases: X-ray crystallography
[1] = molecular target: T1, Nrd1 290-468 wt (Saccharomyces cerevisiae, UniProt P53617 290-468)
T1 sequence: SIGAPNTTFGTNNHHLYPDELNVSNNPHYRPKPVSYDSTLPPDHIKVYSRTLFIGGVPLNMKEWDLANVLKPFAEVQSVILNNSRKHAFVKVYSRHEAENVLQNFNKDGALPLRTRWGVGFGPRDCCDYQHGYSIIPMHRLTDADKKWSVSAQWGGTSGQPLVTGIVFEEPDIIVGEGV

[2] = molecular target: T1, Nrd1 290-468 wt; remark: listed apart in the source
[3] = molecular target: T1, Nrd1 290-468 wt; remark: listed apart in the source

Binder: GUAA (ssRNA)
- binding result [1]: binds

Binder: CGUAAA (ssRNA)
- binding result [2]: binds

Binder: UUAGUAAUCC (ssRNA)
- binding result [3]: binds
